Data on 8 molecules can be found in patent publication US5574018A, “Conjugates of vitamin B12 and proteins” (Amgen Inc., priority 1994, dated 1996).

One experiment addresses T1, Porcine IF (Sus scrofa, UniProt A0A8D1ENZ1).
T1 construct: purchased Sigma Chemical Company, St. Louis, Mo
Description: Intrinsic factor binding affinity, competition binding assay with 57Co-cyanocobalamin (Scatchard). As to conditions: for Kd: association constant, porcine IF, conjugate 123 nM, 30 min. The protocol: The binding affinity of conjugates of VB12 and therapeutic proteins to intrinsic factor (IF) was determined using a competition binding assay based on the procedure described by Mathan et al. in the Journal of Clinical Investigation, Volume 54, pages 598-608 (1974). The assay was conducted in phosphate buffered saline (PBS) containing 1 mM calcium chloride, 0.5 mM magnesium chloride and 1% by weight of bovine serum albumin (BSA) devoid of IF and cyanocobalamin (Sigma Chemical Company, St. Louis, Mo.). Porcine IF (final concentration 1.845 nM) was added to a large excess of the VB12 -protein conjugate (123 nM), together with a range of concentrations of ^57 Co-cyanocobalamin ([…] to 12.3 nM), specific activity 10-20 μCi/μg, in a final volume of 600 μl of PBS. The solution was vortexed and incubated at room temperature for thirty minutes, before adding 1 ml of freshly prepared dextran-coated charcoal (0.5% by weight of charcoal, 0.1% by weight of dextran in PBS) at 4° C. After incubation for ten minutes, the mixture was centrifuged for fifteen minutes at 1000×G (2500 rpm) and 4° C. in a IEC Centra-8R benchtop centrifuge, VWR Scientific, South Plainfield, N.J. The supernatant was decanted from the resulting pellet and assayed in a Cobra 2000 Gamma counter (Hewlett-Packard, Palo Alto, Calif.) to determine the amount of bound ^57 Co-cyanocobalamin.
The ratio of bound to free ^57 Co-cyanocobalamin versus the bound concentration of ^57 Co-cyanocobalamin was plotted according to the method of Scatchard, Annals of the New York Academy of Science, Volume 51, pages 660-672 (1949).
-Slope=-Kapp =-KL /(1+Kc [Lf ])
Kc =binding affinity of conjugate
KL =binding affinity of cyanocobalamin
[Lf ]=concentration of unbound conjugate
The use of a large excess of the conjugate permitted the value of [Lf ] to be treated as a constant (123 nM).

The test system of experiment [1] is exhypoxic polycythemic mice. Description: In vivo exhypoxic polycythemic mouse assay of VB12-EPO conjugates. As to conditions: i.p., vs EPO. The method, then: The hematopoietic activity of EPO after conjugation to 5'-O-[glutaroyl]cyanocobalamin was determined in vivo in exhypoxic polycythemic mice using the procedure of Cotes and Bingham described in Nature, Volume 191, pages 1065-1067 (1961).
The dilution of the complexes prior to intraperitoneal (i.p.) injection was based on the protein content derived from the A280 of the sample.

For experiment [2] the following is noted: Stupperich and Nexo 1991; cited from earlier work.
The next experiment deals with mouse bone marrow cells. Description: In vitro thymidine uptake assay of VB12-G-CSF conjugates. Format: cell-based. As to conditions: for Biological Activity of Conjugate, % activity compared to nonconjugated protein: vs G-CSF. The protocol:
The bioactivity of VB12 -G-CSF in vitro after conjugation to 5'-O-[glutaroyl]cyanocobalamin was determined by measuring the stimulated in vitro uptake of ^3 H-thymidine into mouse bone marrow cells.
Bone marrow cells were collected from the hind legs of female Balb/C mice by flushing the bone with PBS. The cells were purified on a Ficoll-Paque density gradient (Pharmacia) and cultured in McCoys' 5A medium with 10% fetal bovine serum (FBS), 10 mM sodium pyruvate, 1×minimum essential medium (MEM) amino acids, 40 micromolar (μM) of essential amino acids, 0.04% by weight of sodium bicarbonate, 1×MEM vitamin solution, 10 mM L-glutamine and 0.005% by weight of gentamicin sulfate. After incubation for two hours at 37° C. under a 5% carbon dioxide-containing atmosphere, non-adherent cells were collected in the supernatant and the number of viable cells was counted in a hemocytometer.
A standard curve was prepared over a range from 0.07 to 1500 Units of G-CSF per milliliter (U/ml), and the complexes were diluted to about 0.3 to 30 U/ml prior to being assayed. To a 96-well plate was added, in triplicate, 100 μl of the standard or test material and 100 μl of culture medium containing 4×10^4 non-adherent mouse bone marrow cells. After incubating the plates for sixty eight hours at 37° C. under a 5% carbon dioxide atmosphere, 0.5 μCi of thymidine [methyl-3H], 20 Ci/mmol (NEN, Boston, Mass.) was added to each well. The plates were incubated as before for an additional five hours. The cells were collected on filter paper, rinsed with water (ten times) and ethanol (one time), and then counted in Biofluor scintillation fluid in a beta plate scintillation counter (LKB, Piscataway, N.J., Model 1205-001).
The bioactivity of the test material, in Units per milligram (U/mg), was determined from the standard curve of the G-CSF stimulated uptake of thymidine [methyl-^3 H].

Experiment [3] is described as follows: Binding analysis of recombinant rat IF (rrIF).

T1 sequence (A0A8D1ENZ1 29-425): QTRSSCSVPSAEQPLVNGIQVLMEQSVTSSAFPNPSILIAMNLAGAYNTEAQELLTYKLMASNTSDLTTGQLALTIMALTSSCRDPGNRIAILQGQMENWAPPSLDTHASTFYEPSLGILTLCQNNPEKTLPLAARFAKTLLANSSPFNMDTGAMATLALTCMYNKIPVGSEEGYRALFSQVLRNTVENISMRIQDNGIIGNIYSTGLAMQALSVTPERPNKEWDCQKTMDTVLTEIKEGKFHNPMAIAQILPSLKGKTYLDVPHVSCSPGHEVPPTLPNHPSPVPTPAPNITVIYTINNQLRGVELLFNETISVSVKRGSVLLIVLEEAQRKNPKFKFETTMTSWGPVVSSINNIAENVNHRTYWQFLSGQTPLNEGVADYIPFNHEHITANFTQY

Broadly, the Kd is the equilibrium constant for the complex coming apart. As for “5'-O-[glutaroyl]-cyanocobalamin [Example 1]”, the affinity on Porcine IF, expressed as Kd, was 1.35 nM.
Turning to “Example 13: conjugate of 5'-O-[glutaroyl]cyanocobalamin-adipic-1,6-dihydrazide with periodate-treated EPO (through sialic acids)”, the “Biological Activity of Conjugate, % activity compared to nonconjugated protein” value in experiment [1] is 33 ± 14%.
Take “native human IF: native human intrinsic factor, literature value”: the “binding affinity (Ka) of native human IF” value in experiment [2] was 2e+10 M⁻¹.

B1: Example 2: conjugate of 5'-O-[glutaroyl]cyanocobalamin with G-CSF via the N-hydroxysuccinimide derivative (conjugate, UniProt P09919 31-207, looked up)
Granulocyte …: TPLGPASSLPQSFLLKCLEQVRKIQGDGAALQEKLVSECATYKLCHPEELVLLGHSLGIPWAPLSSCPSQALQLAGCLSQLHSGLFLYQGLLQALEGISPELGPTLDTLQLDVADFATTIWQQMEELGMAPALQPTQGAMPAFASAFQRRAGGVLVASHLQSFLEVSYRVLRHLAQP
modifications: cyanocobalamin conjugate
notes: conjugate of 5'-O-[glutaroyl]cyanocobalamin with G-CSF via the N-hydroxysuccinimide derivative
For B1, the Kd with Porcine IF is 2.22 nM.

B2: Example 8: conjugate of 5'-O-[glutaroyl]cyanocobalamin with a polyethylene glycol derivative of G-CSF (conjugate, UniProt P09919 31-207, looked up)
Granulocyte …: TPLGPASSLPQSFLLKCLEQVRKIQGDGAALQEKLVSECATYKLCHPEELVLLGHSLGIPWAPLSSCPSQALQLAGCLSQLHSGLFLYQGLLQALEGISPELGPTLDTLQLDVADFATTIWQQMEELGMAPALQPTQGAMPAFASAFQRRAGGVLVASHLQSFLEVSYRVLRHLAQP
modifications: PEG; cyanocobalamin conjugate
notes: conjugate of 5'-O-[glutaroyl]cyanocobalamin with a polyethylene glycol derivative of G-CSF
For B2, in the experiment with Porcine IF, the “retention of non-conjugated VB12 binding affinity” value is recorded as 1.6% and binding was put at a Kd of 10.8 nM. In addition, in the experiment with mouse bone marrow cells, the “Biological Activity of Conjugate, % of G-CSF” value was 4.4 % of G-CSF and the “Biological Activity of Conjugate, % of PEG-G-CSF” value is on record as 38 % of PEG-G-CSF.

B3: Example 10: conjugate with G-CSF via N-hydroxysuccinimidyl ester of 5'-O-[glutaroyl]cyanocobalamin-8-aminocaprylic acid (conjugate, UniProt P09919 31-207, looked up)
Granulocyte …: TPLGPASSLPQSFLLKCLEQVRKIQGDGAALQEKLVSECATYKLCHPEELVLLGHSLGIPWAPLSSCPSQALQLAGCLSQLHSGLFLYQGLLQALEGISPELGPTLDTLQLDVADFATTIWQQMEELGMAPALQPTQGAMPAFASAFQRRAGGVLVASHLQSFLEVSYRVLRHLAQP
modifications: cyanocobalamin conjugate via aminocaprylic linker
notes: conjugate with G-CSF via N-hydroxysuccinimidyl ester of 5'-O-[glutaroyl]cyanocobalamin-8-aminocaprylic acid
In turn, B3 gave a Kd with Porcine IF of 1.89 nM. For the same molecule, the “Biological Activity of Conjugate, % activity compared to nonconjugated protein” value with mouse bone marrow cells is listed as 60%.

B4: Example 7: conjugate of 5'-O-[glutaroyl]cyanocobalamin with G-CSF via 12-aminododecylamido-dithiopyridylpropionate (conjugate, UniProt P09919 31-207, looked up)
Granulocyte …: TPLGPASSLPQSFLLKCLEQVRKIQGDGAALQEKLVSECATYKLCHPEELVLLGHSLGIPWAPLSSCPSQALQLAGCLSQLHSGLFLYQGLLQALEGISPELGPTLDTLQLDVADFATTIWQQMEELGMAPALQPTQGAMPAFASAFQRRAGGVLVASHLQSFLEVSYRVLRHLAQP
modifications: cyanocobalamin conjugate via disulfide linker
notes: conjugate of 5'-O-[glutaroyl]cyanocobalamin with G-CSF via 12-aminododecylamido-dithiopyridylpropionate
Regarding B4, in the experiment with Porcine IF, the Kd is 4 nM. The “Biological Activity of Conjugate, % activity compared to nonconjugated protein” value in the experiment on mouse bone marrow cells amounted to 33%.

B5: rrIF: recombinant form of rat IF produced in Chinese hamster ovary cells (protein, UniProt P17267 19-417, looked up)
Cobalamin binding intrinsic …: STRAQRSCSVPPDQQPWVNGLQLLMENSVTESDLPNPSILIAMNLASTYNLEAQKLLTYQLMASDSADLTNGQLALTIMALTSSCRDPGSKVSILQKNMESWTPSNLGAESSSFYGPALAILALCQKNSEATLPIAVRFAKTLMMESSPFSVDTGAVATLALTCMYNRIPVGSQENYRDLFGQALKVIVDNISLRIKADGIIGDIYSTGLAMQALSVTPEQPTKEWDCEKTMYTILKEIKQGKFQNPMSIAQILPSLKGKTYLDVPQVTCGPDHEVPPTLTDYPTPVPTSISNITVIYTINNQLRGVDLLFNVTIEVSVKSGSVLLAVLEEAQRRNHMFKFETTMTSWGLIVSSINNIAENVKHKTYWEFLSGKTPLGEGVAYYIPFNYEHITANFTQY
On to B5, for which, in experiment [3], the “binding affinity (Ka) of rrIF” value came to 8.58e+09 M⁻¹.
